Sequences and labels used below:
B1: His-NogoR fusion protein (receptor, human, UniProt Q9BZR6 27-447, looked up)
chain: CPGACVCYNEPKVTTSCPQQGLQAVPVGIPAASQRIFLHGNRISHVPAASFRACRNLTILWLHSNVLARIDAAAFTGLALLEQLDLSDNAQLRSVDPATFHGLGRLHTLHLDRCGLQELGPGLFRGLAALQYLYLQDNALQALPDDTFRDLGNLTHLFLHGNRISSVPERAFRGLHSLDRLLLHQNRVAHVHPHAFRDLGRLMTLYLFANNLSALPTEALAPLRALQYLRLNDNPWVCDCRARPLWAWLQKFRGSSSEVPCSLPQRLAGRDLKRLAANDLQGCAVATGPYHPIWTGRATDEEPLGLPKCCQPDAADKASVLEPGRPASAGNALKGRVPPGDSPPGNGSGPRHINDSPFGTLPGSAEPPLTAVRPEGSEPPGFPTSGPRRRPGCSRKNRTRSHCRLGQAGSGGGGTGDSEGS
notes: Low-glycosylated fraction of about 80 kDa from CHO-K1 cells; also called soluble His-NogoR; NgR-HIS; not shown: Myc/His tag of vector pcDNA4/MycHIS A
B2: AlterCharge1 (peptide)
peptide: FSRIRATHWRVDG
modifications: also: biotinylated, position not given here
notes: Control 13mer with four positive charges
B3: N-terminally truncated sRAGE (sRAGE 102-331) (receptor)
chain: MNRNGKETKSNYRVRVYQIPGKPEIVDSASELTAGVPNKVGTCVSEGSYPAGTLSWHLDGKPLVPNEKGVSVKEQTRRHPETGLFTLQSELMVTPARGGDPRPTFSCSFSPGLPRHRALRTAPIQPRVWEPVPLEEVQLVVEPEGGAVAPGGTVTLTCEVPAQPSPQIHWMKDGVPLPLPPSPVLILPEIGPQDQGTYSCVATHSSHGPQESRAVSISIIEPGEEGPTAGARGGPEQKLISEEDLNSAVDHHHHHH
notes: His-tagged, expressed from psecTAG 2A; no longer has a functional V domain
B4: sRAGE 1-331 (recombinant human sRAGE protein) (receptor)
chain: AQNITARIGEPLVLKCKGAPKKPPQRLEWKLNTGRTEAWKVLSPQGGGPWDSVARVLPNGSLFLPAVGIQDEGIFRCQAMNRNGKETKSNYRVRVYQIPGKPEIVDSASELTAGVPNKVGTCVSEGSYPAGTLSWHLDGKPLVPNEKGVSVKEQTRRHPETGLFTLQSELMVTPARGGDPRPTFSCSFSPGLPRHRALRTAPIQPRVWEPVPLEEVQLVVEPEGGAVAPGGTVTLTCEVPAQPSPQIHWMKDGVPLPLPPSPVLILPEIGPQDQGTYSCVATHSSHGPQESRAVSISIIEPGEEGPTAGGTKLGPEQKLISEEDLNSAVDHHHHHH
notes: His-tagged, from HEK 293 line 293/6.1 sRAGE His 6 (vector pcDNA3.1(-) Myc HIS); also called sRAGE-HIS

The target of assay [1] is T1, AP-Nogo66 (Nogo-66 with an N-terminal alkaline phosphatase tag) (human, UniProt Q9NQC3 1055-1120).
T1 construct: range 1055-1120; Migrates as a dimer of about 140 kDa in gel chromatography; the AP tag induces the dimerization; also called NgR ligand AP-Nogo-66; not shown: alkaline phosphatase tag encoded by vector pAP-tag5
T1 sequence (looked up): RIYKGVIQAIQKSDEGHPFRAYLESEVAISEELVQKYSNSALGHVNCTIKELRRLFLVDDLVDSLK
The experiment in a line: competition of AP-Nogo66 (0.1 nM) binding to coated His-NogoR. The protocol:
(§1) This was followed by a blocking step for 1 hour with 2% strength bovine serum albumin (BSA) in Tris-HCl, pH 7.2, at room temperature. […] These stock solutions were then diluted three-fold.
(§2) After each incubation step, the plates were washed with washing buffer (10 mM Tris-HCl, pH 7.2 and 0.05% Tween20).

In the assay “His-NogoR fusion protein” the target is B1. Described as above. The procedure: as §1, §2
Assay [2] deals with T2, sRAGE-6×HIS (AA 23-352, NP_001127) (human, UniProt Q15109 23-331).
T2 construct: range 23-352; Printed as a fusion protein with limits 23-352 on NP_001127; also called human sRAGE-6×HIS; RAGE receptor; not shown: 6×HIS tag
The experiment in a line: AlphaScreen, biotinylated peptide on streptavidin donor beads, sRAGE-6×HIS 2.5 ng/µl on anti-HIS acceptor beads. The protocol: The assay was carried out by the manufacturer's protocol in 25 mM HEPES, 100 mM NaCl of pH 7.4 and 0.1% BSA in a volume of 20 μl.
The individual components were brought together in a defined time sequence. […] The various amounts of peptide were then added in order, after a further 30 minutes, to add the donor beads. After a further 60 minutes, the fluorescence was measured in the AlphaQuest instrument from Perkin-Elmer with a time lag of one second. Each measured point was determined as triplicate. The evaluation and graphical workup of the results took place with the GraphPrism 4.0 software package.

In assay [3] the target is T3, Amyloid Aβ-1-42 oligomer (globulomer), biotinylated (UniProt P05067 672-713, biotinylated (1/5 biotin; position not stated)).
T3 construct: domain: Aβ 1-42; Concentrations are based on Aβ 1-42 monomers; also called Aβ oligomer; Aβ 1-42 oligomers
The experiment in a line: HTRF competition: peptide preincubated with Aβ 1/5 biotin globulomer 800 nM, then sRAGE 1-331 added; blocked partner sRAGE. (TR-FRET usually uses a lanthanide donor and a delayed reading to cut background.)

Assay [4] has as its target T3, Amyloid Aβ-1-42 oligomer (globulomer), …. The experiment in a line: HTRF direct binding: Aβ 1/5 biotin globulomer titrated on His-tagged sRAGE; anti-6HIS cryptate and streptavidin XL-665.
Assay [5] concerns the target T2, sRAGE-6×HIS (AA 23-352, NP_001127). Kind of assay: AlphaScreen, biotinylated peptide and sRAGE-6×HIS. The procedure:
The entire homogeneous assay was carried out in 25 mM HEPES, 100 mM NaCl of pH 7.4 and 0.1% BSA in a volume of 20 μl.
The individual components were brought together in a defined time sequence. […] The various amounts of peptide were then added in order, after a further 30 minutes, to add the donor beads. After a further 60 minutes, the fluorescence was measured in the AlphaQuest instrument from Perkin-Elmer with a time lag of one second. Each measured point was determined as triplicate. The analysis and graphical workup of the results took place with the GraphPrism 4.0 software package.
In general terms: Bead proximity is the source of the signal in Alpha formats.

No end group written: not given here.

As usually defined, the IC50 is the point on the concentration scale where inhibition reaches its midpoint. High values mean a need for much substance, low ones inhibition by little substance. By EC50 (read off the curve) is commonly meant the concentration at which the effect is half-maximal. In general, EC50 refers to the concentration giving half of the maximal effect. Read a high EC50 as weaker potency.

In assay [1], B1 had an IC50 of 2 nM.

In the case of QNITARIGEPLVLKCKGAPKKPPQRLEWKLN (also: biotin label in some assays, position not given here, also called Nterm 31; Nterm31) [NtermR31], in the assay with His-NogoR fusion protein, the IC50 is 50 nM. With B2, the half-maximal effective concentration (EC50 (read off the curve)) in assay [2] is ~50 nM. On to TLQSELMVTPARGGDPRPTFSCSFSPGLPR (Synthetic 30mer) [AGER-CDP peptide 6], for which the binding result in assay [3] is listed as “binds”. With B3, the binding result in assay [4] is given as “binds”.

As to CKGAPKKPPQRLE (also: biotinylated, position not given here (AlphaScreen assays only), also called Nterm 13) [NtermR13], in assay [5], the response was half-maximal at 66 nM (EC50). As for B4, the binding result in assay [4] is given as “binds”. Take LPRHRALRTAPIQPRVWEPVPLEEVQLVVE (Synthetic 30mer) [AGER-CDP peptide 7]: in assay [3], the “IC50 (read off the curve)” value is ~4000 nM.

The record behind these values is patent US20170008959A1 (AbbVie / Abbott, published 2017).
